In US9688764B2, “Methods of treating breast cancer by administering anti-human prolactin receptor (PRLR) antibodies” (REGENERON PHARMACEUTICALS, INC., priority 2013, dated 2017):

B1: H1H6800P: anti-PRLR antibody, human IgG1 Fc; HCVR/LCVR SEQ ID NOs 194/202 (antibody, V domains shown)
VH: EVQLVESGGGLVQPGRSLRLSCAASGFTFDGYAMHWVRQGPGKGLEWVSGISWYSDTLGYADSVKGRFTISRDNAKNSLYLQMNSLRTEDTAFYYCAKISSSGWAFDYWGQGTLVTVSS
VL: EIVLTQSPGTLSLSPGERATLSCRASHSVSSAYLAWYQQKPGQTPRLLIYGTSSRATGIPDRFSGSGSGTDFTLTISRLEPEDFAVYYCQQYGSSPLFTFGPGTKVDIK
modifications: human IgG1 Fc
B2: H1H6804P: anti-PRLR antibody, human IgG1 Fc; HCVR/LCVR SEQ ID NOs 242/250 (antibody, V domains shown)
VH: QVTLKESGPVLVKPTQTLSLTCTVSGFSLSDAGMGVSWIRQPPGKALEWLAHIFSNDGKSYSTSLKSRLTISKDTSKRQVVLTMTNMDPVDTATYYCARIRTGTYSLYLDYWGQGTLVTVSS
VL: DIQMTQSPSSLSASVGDRVTITCRASQSINSYLNWYQQKPGKAPKLLLYFASSLQSGVPSRFSGSGSGTDFTLTISSLQPEDFASYYCQESYSTPWTFGQGTKVEIK
modifications: human IgG1 Fc
B3: H1H6801P: anti-PRLR antibody, human IgG1 Fc; HCVR/LCVR SEQ ID NOs 210/218 (antibody, V domains shown)
VH: QVQLQQSGPGLVKPSQTLSLTCVISGDSVSSNTAWNWVRQSPSRGLEWLGRTYYRSKWYNDYAVSVKSRITINPDTSKNQFSLLMNSVTPEDTAVYYCARVVRGLNYFDYWGQGTLVTVSS
VL: DIVMTQSPDSLAVSLGERATINCKSSQSVLYNSNNKNYLAWYQQKPGQPPKLLIYWSSSRESGVPDRFSGSGSGTDFTLTISGLQAEDVAIYYCQQYSTIPYTFGQGTKLEIK
modifications: human IgG1 Fc
B4: H1H6803P: anti-PRLR antibody, human IgG1 Fc; HCVR/LCVR SEQ ID NOs 226/234 (antibody, V domains shown)
VH: EVQLVESGGGVVRPGGSLRLSCAASGFKFDDYGMTWVRHVPGKGLEWVSGINWNGGRTGYTDSVKGRFTISRDNAKNSLYLQMNSLRAEDTALYHCAGARRDAFDIWGQGTMVTVSS
VL: DIQMTQSPSSLSASIGDRVTITCRASQNIIKYLNWYQQNAGKAPKLLIYTASSLQSGVPSRFSGSGSGTDFTLTISSLQPEDFATYYCQQSSSSPYTFGQGTKLEIK
modifications: human IgG1 Fc
B5: H1H6953N: human IgG1 Fc form of H1M6953N; anti-PRLR; HCVR/LCVR SEQ ID NOs 274/282 (antibody, V domains shown)
VH: EVQLLESGGGLVQPGGTLRLSCAASGFTFSAYAMSWVRQAPGKGLEWVSSINVRAGDTYYADSVKGRFTISRDNSKNTLFLLMNSLRAEDTAAYYCAKARYSSNWGFDFWGQGTLVTVSS
VL: DIVMTQSPDSLTVSLGARTTINCQSSQTILHSSNNHNYLAWYQQKPGLPPKLLIYWSSTRESGVPDRFSGSGSGTDFTLTISSLQAEDVAIYYCQQYSNTPYTFGQGTKLEIN
modifications: human IgG1 Fc

Each molecule was assayed on HEK293/hPRLR/STAT5-Luc cells (human PRLR) (assay: STAT5-Luc luciferase reporter assay, blocking of PRL-mediated receptor activation). Conditions: 5 nM constant PRL, 6 hr at 37° C.
Format: cell-based
Outline: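 Engineered HEK293 line stably carrying human PRLR and a STAT5-dependent luciferase reporter; antibodies (100 nM to 24 pM) incubated 6 hr at 37° C with 5 nM constant PRL, luminescence read. IC50 from four-parameter fit of 8-point curves; percent blocking at highest antibody dose; agonism without ligand also tested.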

| Molecule | IC50 [nM] |
| --- | --- |
| B1 | 0.355 |
| B2 | 7.89 |
| B3 | 0.14 |
| B4 | 0.627 |
| B5 | 0.105 |

Same assay, conditions: 100 nM antibody, 5 nM PRL

| Molecule | Percent Blocking at 100 nM Antibody [%] |
| --- | --- |
| B1 | 100 |
| B2 | 100 |
| B3 | 100 |
| B4 | 100 |
| B5 | 100 |

The molecules below were run against T1, T47D (native PRLR expressing cell line) (Homo sapiens, UniProt P16471) (assay: FACS cell surface binding). Conditions: not given.
T1 construct: a native PRLR expressing cell line (T47D); endogenous in cells; host or cells: T47D
T1 sequence (P16471 25-622): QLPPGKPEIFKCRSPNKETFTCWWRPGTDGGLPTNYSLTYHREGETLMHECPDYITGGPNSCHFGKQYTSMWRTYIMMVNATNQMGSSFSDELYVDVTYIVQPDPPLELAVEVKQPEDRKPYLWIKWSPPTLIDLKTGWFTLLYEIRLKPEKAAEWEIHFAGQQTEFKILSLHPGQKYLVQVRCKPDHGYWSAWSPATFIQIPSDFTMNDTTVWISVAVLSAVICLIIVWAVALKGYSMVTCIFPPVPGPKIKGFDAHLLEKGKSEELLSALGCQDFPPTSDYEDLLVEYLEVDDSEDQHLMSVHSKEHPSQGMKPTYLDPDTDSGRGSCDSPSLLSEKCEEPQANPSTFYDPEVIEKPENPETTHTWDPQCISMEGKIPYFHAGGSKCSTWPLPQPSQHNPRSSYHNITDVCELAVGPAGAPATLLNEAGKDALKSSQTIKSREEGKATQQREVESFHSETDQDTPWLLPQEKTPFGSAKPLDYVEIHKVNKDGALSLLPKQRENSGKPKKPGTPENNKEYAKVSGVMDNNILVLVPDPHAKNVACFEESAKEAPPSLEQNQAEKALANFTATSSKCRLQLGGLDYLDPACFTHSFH
Outline: (§1)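 HEK293 lines stably expressing HA-tagged human, cynomolgus or mouse PRLR, native-expressing T47D and parental HEK293 tested by flow cytometry. Cells (1×10^5) stained with primary antibody 30 min on ice, then PE anti-human secondary; MFI expressed as fold over isotype control.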

| Molecule | FACS Cell Binding (Fold Above Background) |
| --- | --- |
| B1 | 41 |
| B2 | 34 |
| B3 | 45 |
| B4 | 39 |
| B5 | 40 |

These molecules were tested against T2, HEK293/mPRLR (Mus musculus, UniProt Q08501) (assay: FACS cell surface binding). Conditions: not given.
T2 construct: HA; expressed in transfected cells; host or cells: HEK293
T2 sequence (Q08501 20-608): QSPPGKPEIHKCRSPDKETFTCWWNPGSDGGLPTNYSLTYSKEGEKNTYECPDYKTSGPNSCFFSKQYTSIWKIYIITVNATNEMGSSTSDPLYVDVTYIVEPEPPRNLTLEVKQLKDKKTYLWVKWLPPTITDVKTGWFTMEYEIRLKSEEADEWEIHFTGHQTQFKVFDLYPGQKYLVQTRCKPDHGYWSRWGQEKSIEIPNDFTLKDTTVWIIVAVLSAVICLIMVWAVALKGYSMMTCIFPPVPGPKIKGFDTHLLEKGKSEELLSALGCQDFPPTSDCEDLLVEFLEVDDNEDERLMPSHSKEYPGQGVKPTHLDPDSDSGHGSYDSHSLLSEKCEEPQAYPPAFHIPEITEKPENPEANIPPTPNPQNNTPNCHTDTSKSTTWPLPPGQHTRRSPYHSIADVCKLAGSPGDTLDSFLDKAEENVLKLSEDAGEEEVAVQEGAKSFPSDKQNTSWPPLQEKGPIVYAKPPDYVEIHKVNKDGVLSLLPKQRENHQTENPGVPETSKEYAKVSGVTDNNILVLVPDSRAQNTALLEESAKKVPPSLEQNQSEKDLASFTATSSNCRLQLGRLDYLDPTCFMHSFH
Outline: as §1

| Molecule | FACS Cell Binding (Fold Above Background) |
| --- | --- |
| B1 | 1 |
| B2 | 1 |
| B3 | 56 |
| B4 | 1 |
| B5 | 2 |

The molecules below were run against T3, HEK293/hPRLR (Homo sapiens, UniProt P16471) (assay: FACS cell surface binding). Conditions: not given.
T3 construct: HA; expressed in transfected cells; host or cells: HEK293
T3 sequence (P16471 25-622): T1 sequence (P16471 25-622)
Outline: as §1

| Molecule | FACS Cell Binding (Fold Above Background) |
| --- | --- |
| B1 | 35 |
| B2 | 1 |
| B3 | 47 |
| B4 | 39 |
| B5 | 37 |

The molecules below were run on HEK293 (non-expressing parental cells) (assay: FACS cell surface binding). Conditions: not given.
Outline: as §1

| Molecule | FACS Cell Binding (Fold Above Background) |
| --- | --- |
| B1 | 1 |
| B2 | 1 |
| B3 | 7 |
| B4 | 1 |
| B5 | 2 |
